Reference: the DeepSol protein solubility set

Experiment: soluble on expression in E. coli; label from the status in PepcDB or PDB records
With “MSLVNTIGFDREKYIEMQSQHIRERREALGGKLYLEMGGKLFDDMHASRVLPGFTPDNKIAMLDRIKDEVEILVCINAKDLERHKIRADLGISYEEDVLRLVDVFRDRGFLVEHVVLTQLENDNRLALAFIERLQRLGIKVSRHRVIPGYPTDMDRIVSDEGFGLNEYAETTRDLVVVTAPGPGSGKLATCLSQVYHEHKRGVAAGYAKFETFPIWNLPLEHPVNLAYEAATVDLNDANVIDHFHLAAYGEQTVNYNRDVEAFPLLKTLLERLMGESPYQSPTDMGVNMAGNCISDDAACRHASEQEIIRRYFKALVEEARTGKDSTQSDRAAVVMAKAGIKASQRVVVEPARQVEERTSLPGCAIELVDGSIITGATSDLLGCSSSMLLNALKHLAGIDDAIHLLSPESIEPIQTLKTVHLGSSNPRLHTDEVLIALSVSAATDSNAQKALDQLKNLRGCDVHTTTILGSVDEGIFRNLGVLVTSDPKFQKNKLYQKREGHHHHHH” the “soluble on expression in E. coli” value was “soluble”.
In the case of “MGSDKIHHHHHHMPPRKKAAIASTGIAGLDEILRGGLPLPNLFMLQGAPGSGKTTAAIQFLRAGVEAGESCLYVTLSQSAAELRSIAVSHGWTLDGIHVEELSTTGSIDEADEQSIFMTADLRLDETRKAIEAAIDEHKPQRLVYDSLLEIRLITGDSPRFRRELIGFKSFLSKRKVVALLLDTQSPGLDRSGEEVEGLAHGVIRFDKSLEEYGGVRRRIEVSKMRGVPIADGYHDMAIREGAGVVVFPRIMPSTATEATKPQLIKSGVSELDDMFGGGQEAGTTTLVIGQAGTGKSTMSSLYATAALERGESVALFLFEERLETFFRRSEGLGMQLRQFHKDGKLILRDFNPNEVSPGEFGQIVQDAVVQNKVRVVVIDSLTGYLNSLPHREKAVRDIQSLLKYLARSGVLTMLIVAQHGLLGQNVGIDVDVSFLGDTVLLLRIMEHEGRLRRSITVVKKRHGPHDLDVRELLIESGSVSVVSYNPLPDPK”, the “soluble on expression in E. coli” value is reported as “not soluble”.
In the case of “INKVPVTVFLWRPEKYWPADFVSENVKNFGYTVEEFTSGKVLYGNIVHPDDFERVERELSRRIEEDYVDFSQEYRILTKSGEARWVEERTFIEADENGVVKYLKGIILDIT”, the “soluble on expression in E. coli” value is reported as “not soluble”.
With “MSLKFMYSALLGNPVEHSISDELFEYLNHNIGVLDEYKHKKILVDSVCLEDKIKHLINDPKCIGLNITLPYKREVMRYIDNLDRVAEITGSVNNIYKSGNIITGTNTDWKGIYNTLVFFNISHITKCCVLGTGGTARAAIFALQKLQISPTVVYREPISENTRSLIKSFPDLKYITYKELADQQILNDMEIIINTTPVGMINYEESLPINFDHLDNVNYKDKYFMDVVFNPLHTKLHEYFGKKGAKIIDGLWVLIFQGIEAFSLWSDKINDGKYFFSKDDVVLIHTFLEGKIKGKEGHHHHHH” the “soluble on expression in E. coli” value was “soluble”.
With “MTHNIHDNISQWMKSNEETPIVMSSRIRLARNLENHVHPLMYATENDGFRVINEVQDALPNFELMRLDQMDQQSKMKMVAKHLISPELIKQPAAAVLVNDDESLSVMINEEDHIRIQAMGTDTTLQALYNQASSIDDELDRSLDISYDEQLGYLTTCPTNIGTGMRASVMLHLPGLSIMKRMTRIAQTINRFGYTIRGIYGEGSQVYGHTYQVSNQLTLGKSELEIIETLTEVVNQIIHEEKQIRQKLDTYNQLETQDRVFRSLGILQNCRMITMEEASYRLSEVKLGIDLNYIELQNFKFNELMVAIQSPFLLDEEDDKSVKEKRADILREHIK” the “soluble on expression in E. coli” value was “not soluble”.
With “MSLGITDSGLSEKQVEKLVRASRPNNPSPDIWARAIKESLEELGQPVDKEHVSAVCAVISQVSAFSISPKNSRMASILRKKIEAAESNEVLRLLIETRLDQTASNGRTFRENIDSIQSELDFEKWYDEFTSASVTKPILLVLKKDASDLITTAGSMQVSVKFAEEYPKKPRNAGGGSVRDMLYTCKGGVFYGTAYLLDYKHNYDDWKYVFADFNAGHYTSRNAGFQKMLGRLTHRMVDTDGDLLSYENGNATPSVTYVTFINFLKDKGIGFDEKKVMKDFQQEKSYDFEETWSYKTLSELYKKKYGHPIYAVLPDIPLNSPKFVSKNLSTKWFAERVKSRYNHCMRTSIEGHHHHHH” the “soluble on expression in E. coli” value was “soluble”.
For “MQRGLLVLHASAIAAAGKGAIFMGDKGAGKSTTASALIRAGHELLTDDVVALDLARPDAPMIVAGFPQIKLAADAAAAISLGRAEVRPQVHPAIEKMQHRLHGAFSGGMVPATRIYVLERGLEHHHHHH”, the “soluble on expression in E. coli” value was “not soluble”.
For “MIRLIGMEDGKTLEDLVKTKIATDTKHKPRKDAVLCSEMFLSASPEYFRPHDPSLAGEWNDERMVLFAKASITWLKTNYGDKCVRAELHLDEATPHIHAYIVPINDKTKLLSHKEMFGGDGRVGSIKLSKLQDSYAQALAPLGIERGVKGSKATHTKVKEYYQAVNSEPLTAVWSNQKLEHHHHHH”, the “soluble on expression in E. coli” value was “not soluble”.
With “MLRHNVPVRRDLDQIAANNGFDFHIIDNEIYWDESRAYRFTLRQIEEQIEKPTAELHQMCLEVVDRAVKDEEILTQLAIPPLYWDVIAESWRARDPSLYGRMDFAWCGNAPVKLLEYNADTPTSLYESAYFQWLWLEDARRSGIIPRDADQYNAIQERLISRFSELYSRELFYFCCCQDTDEDRSTVLYLQDCAQQAGQESRFIYIEDLGLGVGGVLTDLDDNVIQRAFKLYPLEWMMRDDNGPLLRKRREQWVEPLWKSILSNKGLMPLLWRFFPGHPNLLASWFEGEKSQIAAGESYVRKPIYSREGGNVTIFDGQNNVVDHADGDYADEPMIYQAFQPLPRFGDSYTLIGSWIVDDEACGMGIREDNTLITKDTSRFVPHYIAG” the “soluble on expression in E. coli” value was “not soluble”.
In the case of “METSETDSTGNTQTCETRQTRSNSWTAWGIHAISTITDGAKQLYTKALGLDELEEKKLEDEEGVTHVEVDEKTKRDLWNQLSTLVGADVINMRLSLPVWLFEPTTALQRMCETLQFHQLLDMAATCEEPVERDALVAAFTVSAFAHTERVYKPFNPVLGETFEWTSRDGTTRVLCEQVSHHPPVSVSYTEGPGWVAQEVFSCNAYFLGNSVEIRNTGSRYVYLTSFDERYEWTLPVSAAQNLFVGGSFIDHYGELILRSSPRGSVTSLTFTKCGWFGRGRYAVNGDIVDADGYRVMELSGEWNRGLVGFRLDKSSGERVDAKSLWYAGEHKPAVKRDKYNFTNFTYELLEVPDNAESIIPPTDSRFRPDRRALEGNNLSLANLEKVRVENIQRERENQRQKTGTTYVPAWFYQDDNNEWHFGGKYWKETRNMSEDQKEQMKLW”, the “soluble on expression in E. coli” value is reported as “soluble”.
With “MEYREFDFWYYKIGNGDANLTCKMSYNPKSPIFTDFPDTVVHTVLEKLLPAERMVVRNVSKKLRNLFDERYRVIKNVYMQVQDEEAILFFENHEELEKTFSCNGNDGNEKYLEIALEKVAKFTKNHKLEEFEVHFDDEAGEKHRWGLYDDVSDMFKASKAVLNTKKFSIELLRPDDAKAAFSHFKPGNLEDIEIEYFCTGYKYPKYPRCPRYDDDSDDSFEDNMGMYEQLTELAHWQKAKKVKIGVDDSLDFSIEALFHLENFEISLNKFTKNDAIKIRDVLLQTAHFQSGIITFSKDPGGTNMLKVFNPKYSGGENGPIIYKTKDSRFEIGLGYSSIEFKRI” the “soluble on expression in E. coli” value was “not soluble”.
In the case of “AMAISDPEETLMDSTTATAELGWMVHPPSGWEEVSGYDENMNTIRTYQVCNVFESSQNNWLRTKFIRRRGAHRIHVEMKFSVRDCSSIPSVPGSCKETFNLYYYEADFDLATKTFPNWMENPWVKVDTIAADESISQVDLGGRVMKINTEVRSFGPVSRNGFYLAFQDYGGCMSLIAVRVFYRKCPR”, the “soluble on expression in E. coli” value is reported as “soluble”.
With “GPGSMSSSAPLSTQQPAPLPLQRQQQQQSTQSMLDAIRQQGWGSASSGGGDAMPSDASSRGMEGHSGAKLACPQMHEGHSAISSRPFNSEGADKPFAAVAATREASEAAKNSYDSMQPSADSQQLRGAEGECALPGHANAAAAAATLRNTNGVCEAIVTAARYGRSMEPSASVPAVTATAALVNVVAEEKERRRLSGPFGSYSTTDEVFHQKCNDVQRGSAIESADSRTDASGGALVVSPAYAAVPARVSEAPSPVDAEMQQLLADARRAYTAAEERLLSDGLALREDWMGTRDLFFAAGSLFAAVGEAADAARCLLHATFINRAFQNDSEAMVTLAMSVEQLKQSHPRIAVDSLLRLAPCYAQQDLRYQAARCHRDAAEILENILEAKEEAVVQYRAALDMYAETKVAAAETARRWERQQQQQRTAAIWGDLTGTPPLPPSAGASATNGDLTSPTAPGGVEATSLGSEQPFVSPKSTAPVPSSGGDSLTSSVNGQKPHSLEFPAHGPPQYRVSTTVQRSLADSCRWRLMILLTLLGRYDEAREAALDCAANVPRTLPKTKYLLYATLCVLARGASVKTDSTANSVSDPAAAAEAAQAPETPTTPFTAAAADTVYFDSLYDTEKFFLGLQDEDRTFQRGKENALVRALLAANRACSLTAFDEAVRAYKEYSTTEPCAAFELLAGECRRSLFEHMERFA” the “soluble on expression in E. coli” value was “not soluble”.
With “MGSDKIHHHHHHMKKKLKIGISACVMGEPVRFDRGHKKSGFCMEQLAEFAEFKPVCPEMAIGLPVPRPTIRQIVRDNIITVSRPDGSGDVTQALKEFGAKAALNYQELAGFVFCAKSPSCGMERVKVYHHHGKGSESTGVGIFAEQVMKANPLLPCEENGRLNDPIIRENFTTRIFTYQKWLDLKAEGLTRHKLIQFHSAHKYLVMSHHVESYRELGRLLGRADIGLEEQSERYISGLMQALKHKASRRSHTNTLQHLQGYFKRQLDEHKRRELTQEIAAYREGLSPLLVPLTLIKHYLIEFPNEYLLQQAYLNPHPKELRLRYGY” the “soluble on expression in E. coli” value was “not soluble”.
With “MGSDKIHHHHHHMQPMDAEVLRILRKNNKSQDWGKINKKLHPKIVKYVDGKPVYQFFDTLNDNSFEKNGQLISIRTQPVNSFVPYHVHNYVEMMVVLSGRCVIKTQSESITLIQDEIMIIGCKTIHKIKPINDETIVVEIALKRTAFSLRDLTFLTHSRDAQSVSSTVFFLLSNDDSYGAFNVFHTQHDVNVVNKVNNIIREYYRPDNYSNQVIKFKILELFIRLVRLASKGPILQTQKEDHKNNEVDALTLLLYIEKNYKTVTLKSMAKHFKFHPNYLSSILKRKTGYTFIKLVHLQRINVAAEYLSLTDISIESISLAVGYEDPSCFYKIFRNHMGCSPREYRQRQAA” the “soluble on expression in E. coli” value was “not soluble”.
In the case of “MTLSILVAHDLQRVIGFENQLPWHLPNDLKHVKKLSTGHTLVMGRKTFESIGKPLPNRRNVVLTSDTSFNVEGVDVIHSIEDIYQLPGHVFIFGGQTLFEEMIDKVDDMYITVIEGKFRGDTFFPPYTFEDWEVASSVEGKLDEKNTIPHTFLHLIRKK”, the “soluble on expression in E. coli” value is reported as “soluble”.
For “MFSPLGQFKHIVCPFLRTGRKCQSRNCFFSHDFQNSTKISPPYSENVEGYPKVKIEKSLPYKYDNCKLSICVPIVTTCIPYHSVENLNFNIRQNISTTLNLEKTNDSIKETKNENFRMDVLETYKCKQLNHQTTHLPTNTVLKKRSLFNDAISIVPNKKKQLVSAISTNSDSQGASSNIIPTPKYDSNSPAGHELRKRMTHLLYESYKDLGYSNAESSMLALLDEKNICETANSKMIYSSSCKSKILSLKKAPKKNEIQGSTPDEKLESLVHSEEELILWGYNIGDVAPVNPPDELRECDRCGTRFADPRGPCTYHWGKLFREKQGGEKIRTYTCCGVKEGDSSGCIIEDNHVFKYRHLPYLASVHPFSYLPDSTNSKQLSHCALDCELCYTTNGMELARLTVVAKESIIMDVFIKPKGKILSLNTRFSGIHDAKELESGITMDQMYIKIKELGMNKNTILIGHGLENDLNAMRLIHKRVIDTALLFTHARGPPFRYSLKYLTKKYLGTTIQTSTHDSEEDAVSALQLVFYKTKSNESQN”, the “soluble on expression in E. coli” value was “soluble”.
In the case of “MRRGSGNPERPSLSRDGLRVPPPCPGKRGPGHFSGYHGGMEGIRRAAQRAAEEFLQAFPMAPGSLFVLGGSTSEVLGERVGTRPSLEAAHAVLEGLLPPLLERGVHVAVQACEHLNRALVVERETARAFGLEEVAVFPHPKAGGALATAAFLRFRDPVMVESLKAQAHGGMDIGGVLIGMHLRPVAVPLRLSVRKIGEAVLLAAKTRPKLVGGARAVYTREEMLKKLEEFLPKPP”, the “soluble on expression in E. coli” value is reported as “soluble”.
